Measured values as given in article PMC4686834, “Autocrine selection of a GLP-1R G-protein biased agonist with potent antidiabetic effects” (Nature Communications, 2015).

How the values were obtained:
[1] = target: human GLP-1 receptor (stable CHO cell line) (human) (UniProt P43220)
[2] = target: mouse GLP-1 receptor (HEK293 cell line) (mouse) (UniProt O35659)
mouse GLP-1 receptor (HEK293 cell line) (mouse), sequence (O35659 22-463): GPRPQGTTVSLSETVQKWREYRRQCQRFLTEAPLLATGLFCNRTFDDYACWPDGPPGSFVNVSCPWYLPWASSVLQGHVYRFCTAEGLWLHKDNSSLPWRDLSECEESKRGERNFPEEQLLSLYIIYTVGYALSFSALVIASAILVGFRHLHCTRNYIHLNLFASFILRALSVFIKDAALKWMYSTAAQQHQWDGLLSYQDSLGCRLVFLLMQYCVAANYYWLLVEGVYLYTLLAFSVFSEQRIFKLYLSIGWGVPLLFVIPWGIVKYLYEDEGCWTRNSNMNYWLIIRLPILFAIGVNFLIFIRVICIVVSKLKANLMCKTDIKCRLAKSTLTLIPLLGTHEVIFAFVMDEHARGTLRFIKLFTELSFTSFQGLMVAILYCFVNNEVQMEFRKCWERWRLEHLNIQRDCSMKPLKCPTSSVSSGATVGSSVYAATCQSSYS

human GLP-1 receptor (stable CHO cell line) (human), sequence (P43220 24-463): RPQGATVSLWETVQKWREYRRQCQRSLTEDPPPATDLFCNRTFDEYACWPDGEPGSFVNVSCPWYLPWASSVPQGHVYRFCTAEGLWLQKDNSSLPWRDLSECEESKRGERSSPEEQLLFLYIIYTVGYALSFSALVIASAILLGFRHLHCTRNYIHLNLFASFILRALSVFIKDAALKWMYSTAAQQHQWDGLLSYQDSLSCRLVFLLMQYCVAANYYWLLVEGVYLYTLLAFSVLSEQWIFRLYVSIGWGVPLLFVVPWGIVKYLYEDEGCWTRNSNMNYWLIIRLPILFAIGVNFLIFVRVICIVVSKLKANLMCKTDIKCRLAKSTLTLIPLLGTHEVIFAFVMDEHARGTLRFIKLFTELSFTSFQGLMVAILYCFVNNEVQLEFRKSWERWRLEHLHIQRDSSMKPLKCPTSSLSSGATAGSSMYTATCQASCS

How did the EC50, cAMP production (Gαs; HTRF) in CHO cells expressing human GLP-1R [1] turn out when “Exendin-4 (from UniProt P26349 48-87) (peptide)” was run?
Its EC50, cAMP production (Gαs; HTRF) in CHO cells expressing human GLP-1R is 0.091 nM.

What about the EC50, cAMP production (Gαs; HTRF) in HEK293 cells expressing mouse GLP-1R [2] of the same substance?
The EC50, cAMP production (Gαs; HTRF) in HEK293 cells expressing mouse GLP-1R was 0.322 nM.
